To fix the notation:
B2: Sulfolobus acidocaldarius Rad50 (enzyme, UniProt O33600 1-886, looked up)
chain: MIIREIRLQNFLSHEDTTVKFEGSINVIIGNNGAGKSSIIDGILFGLFKRTNRDIGKNEELIKKGKKSGQVSIKFEINGDTYLIDRNVGETSRDTISLLKEGKIITLARQSTTVNNKIKEILGFDHKILMSTTIIGQGSVESVFSDFPEVMKELLKINKLEMLRESNGPIHSLIKVLTDRIRSLQSIKDILKREEAEIDRLKKEIEEIKVKLENIEREAKEKEDELNQYNTEFNRIKEIKVQYDILSGELSVVNKKIEEIALRLKDFEEKEKRYNKIETEVKELDENREKINTISSFKSILVQIDSLKSQINVVENDLKRKKEKLKRKKELEEKEKQYEEIEKRKKELEEKEKQYEEIEKRLTYVLKNIERQKNEIEKLNYVDTQDLENKIKDVSDRINQIDNELKGLLDRRGDLNGRKEQTLKIYNNLNSIEDDRCPICGRPLDSEHKAKIREEIKVQLLELNKQITALQARINSLIKEREELEATRNKLQLELQKRSKEKGIYEAKLKELQRLEEEKNKLQNEILSLLSYHQEFENIAEKEKELIDYHEEYLKNSDILEEDIQEQEQRLNELNSKLSELEKSYNDYKAKYQFLPADLKSLVSLEERIRRRISELEKLKIEYERLKEEITRMKGLKEEYEKLKEEEDALLNRISELGYSEKRYKQLEEIIDKLSKILSGIEADKGKIKGSLEEKIKNIEEKERNIEELRNKMNEESKLNLGISKLQKLREVLDNKHLQSHIMNIVRNQIENNVNEVIAKFDLSFSAVEIDFVGKSELYVYTASGQKIHINALSGGERISIALALRLAIAKALMNQFSTLILDEPTVNLDEYRRKELIDVIRSAIEIVPQIILVTHDQELIQAGDYIIRVEKKGDTSKVEVSSYDR

Series [1] concerns the target B2. The series is described as follows: atomic force microscopy.
The series “atomic force microscopy” concerns the molecule itself. The series is described as follows: atomic force microscopy.

The record followed here is paper PMC7334584 (Proceedings of the National Academy of Sciences of the …, 2020).

B1: Sulfolobus acidocaldarius Mre11 (enzyme, UniProt Q8NKQ0 1-382, looked up)
chain: MQLLHISDTHLGKRQYNLESREKDVYDTFTQLIDIAINEHVKAVIHTGDLFDVNNPPNRAKLHAIKELKRLKDHNIPFICIAGDHDSPKRKEEIYPQRILEEFNLIKILQKIDNRVKLENVEVYGISHISNVSVNDLKEQLSKVKPETRKSILMLHQGIRTYLPYQGAWQIELSDLPKGFSLYAVGHLHSRRKDYLDGGALIEIAGSPDIMREEEIEDYQKSKKGATLIDMSGDLPSINYINVNIRDQLVLDINVDKIEQSIESVIQKLKENVKNDKKPILHIELEGTVPIRKDVLMTKLQALRDYVEHYRIYKNNIVSIKEENLKTKLKTTYSSLNDIIADYLKGIGYTDEETKIIIDIINEEDEKKVEELLKKFAGVEDK
B1: the binding result in series [1] is recorded as “binds”.

As to B2, the binding result in “atomic force microscopy” is reported as “binds”.
